In patent US20040136998A1 (published 2004):

Molecular target: T1, prostate specific membrane antigen (PSMA) (human, UniProt Q04609 1-750)
T1 construct: whole, on cells; Target in all assays is PSMA on LNCaP (LNCap) cells or LNCaP membrane preparation; also called human PSMA
Assay: ELISA on plates coated with LNCap membrane preparation; purified antibody; reference: J415 chimeric antibody

T1 sequence (Q04609 whole entry): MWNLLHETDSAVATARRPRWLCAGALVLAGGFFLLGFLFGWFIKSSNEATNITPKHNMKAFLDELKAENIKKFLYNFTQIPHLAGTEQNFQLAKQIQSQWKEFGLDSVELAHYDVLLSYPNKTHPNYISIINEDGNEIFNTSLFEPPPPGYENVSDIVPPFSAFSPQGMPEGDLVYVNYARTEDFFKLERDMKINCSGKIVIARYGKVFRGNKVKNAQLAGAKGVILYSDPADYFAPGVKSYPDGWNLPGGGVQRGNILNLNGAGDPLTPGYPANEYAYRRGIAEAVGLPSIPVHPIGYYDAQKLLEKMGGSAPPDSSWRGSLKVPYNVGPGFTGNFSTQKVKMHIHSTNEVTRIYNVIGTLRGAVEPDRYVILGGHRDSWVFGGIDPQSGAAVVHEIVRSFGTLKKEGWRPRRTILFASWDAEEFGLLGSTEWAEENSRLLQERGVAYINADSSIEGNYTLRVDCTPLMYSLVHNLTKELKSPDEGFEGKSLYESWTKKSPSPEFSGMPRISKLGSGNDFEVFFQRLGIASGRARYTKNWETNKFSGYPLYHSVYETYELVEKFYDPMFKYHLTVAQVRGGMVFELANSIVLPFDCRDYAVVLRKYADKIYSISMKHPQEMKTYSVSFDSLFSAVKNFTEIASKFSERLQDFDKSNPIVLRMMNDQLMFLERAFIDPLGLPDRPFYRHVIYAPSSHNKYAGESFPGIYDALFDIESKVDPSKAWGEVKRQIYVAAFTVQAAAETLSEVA

B1: deimmunized J415 antibody, heavy chain version 2 with light chain version 5 (antibody, V domains shown)
VH: EVKLEESGGGLVQPGGSMKISCVASGFTFSNYWMNWVRQTPEKGLEWVALIRSQSNNFATHYAESVKGRVIISRDDSKSSVYLQMNSLRAEDTAVYYCTRRWNNFWGQGTTVTVSS
VL: NIVMTQFPKSMSASAGERMTLTCKASENVGTYVSWYQQKPTQSPKMLIYGASNRFTGVPDRFSGSGSGTDFILTISSVQAEDLVDYYCGQSYTFPYTFGGGTKLEMK
- fold less binding than the chimeric antibody: 2 fold
